These results are taken from patent US20250026813A1 (published 2025).

For test [1], the target named is SARS-CoV-2 spike protein receptor binding domain (RBD) (SARS-CoV-2, UniProt P0DTC2 319-541).
Test [2] deals with SARS-CoV-2 spike protein N-terminal domain (NTD) (SARS-CoV-2, UniProt P0DTC2 14-305).
For test [3], the target named is SARS-CoV-2 spike receptor binding domain (RBD), antigen of Example 10 (SARS-CoV-2, UniProt P0DTC2 319-541).
The target of test [4] is SARS-CoV-2 spike N-terminal domain (NTD), antigen of Example 10 (SARS-CoV-2, UniProt P0DTC2 14-305).
In test [5] the target is Receptor binding domain (Neil King, University of Washington) (SARS-CoV-2, UniProt P0DTC2 328-531).

The Kd is the equilibrium constant for the complex coming apart. A high value points to weaker binding.

B1: IMPI-042 (antibody, V domains shown)
VH: EVQLVESGGGLIQPGGSLRLSCAASGLTVSSNYMSWVRQAPGKGLEWVSIIYSGGSTYYADSVKGRFTISRDNSKNTLYLQMNSLRAEDTAVYYCARLGGYYYYGMDVWGQGTTVTVSS
VL: DIQMTQSPSSLSASVGERVTITCQASQDIRNYLNWYQKKPGKAPKLLIYDSSNLETGVPSRFSGGGSGTDFTFTISSLQPEDIATYYCQQYDNLPITFGQGTRLEIK
Consider B1, for which the Kd was 1.87 nM in test [1] and 662 nM in test [2].

B2: IMPI-054 (antibody, V domains shown)
VH: EVQLVESGGGLIQPGGSLRLSCAASGLTVSSNYMSWVRQAPGKGLEWVSIIYSGGSTYYADSVKGRFTISRDNSKNTLYLQMNSLRAEDTAVYYCARLGGYYYYGMDVWGQGTTVTVSS
VL: DIQMTQSPSSLSASVGERVTITCQASQDIRNYLNWYQKKPGKAPKLLIYDSSNLETGVPSRFSGSGSGTDFTFTISSLQPEDIATYYCQQYDNLPITFGQGTRLEIK
Consider B2, for which the Kd in test [3] came to 2.06 nM; in test [4], 602 nM.

B3: IMPI-055 (antibody, V domains shown)
VH: QVQLVQSGAEVKKPGASVKVSCKASGYTFTSYDINWVRQATGQGLEWMGWMNPNSGNTGYAQKFQGRVTMTRDTSINTAYMELSSLRSEDTAVYFCARGGRYCSDVTCYSGEPFDYWGQGTLVTVSS
VL: EIMLTQSPDFQSVTPKEKVTITCRASQSIGSSLHWYQQKPDQSPKLLIKFASQSISGVPSRFSGSGSGTDFTLTINSLEAEDAAAYYCHQSSSLPHTFGPGTKVEIK
As to B3, the values for the Kd in test [3] and in test [4] were 1.85 nM and 1360 nM, respectively.

B4: IMPI-024 (antibody, V domains shown)
VH: EVQLVQSGAEVKKPGESLKISCKGSGYSFTSYWIGWVRQMPGKGLEWMGIIYPGDSDTRYSPSFQGQVTISADKSISTAYLQWSSLKASDTAMYYCVRSYNWNYFDYWGQGTLVTVSS
VL: AIQLTQSPSSLSASVGDRVTITCRASQGISSGLAWYQQKAGKAPKLLIYDVSSLESGVPSRFSGSGSGTDFTLTISSLQPEDFATYYCQQFLSYPWTFGQGTKVEIK
Consider B4, for which the values for the Kd in test [1] and in test [2] were 1.16 nM and 660 nM, respectively.

B5: IMPI-068 (antibody, V domains shown)
VH: QVQLVESGGDVVQPGRSLRLSCAASGFTFSRYGMHWVRQAPGKGLEWVAVISYDGSDKYYADSVKGRFTISRDNSKNTLYLQMNSLRAEDTAVYYCAKQLPLYYYYYGMDVWGQGTTVTVSS
VL: AIQLTQSPSSLSASVGDRVTITCRASQGISSALAWYQQKPGKAPNLLIYDASSLESGVPSRFSGSGSGTDFTLTISSLQPEDFATYYCQQFNIYPHTFGPGTKVDIK
Take B5: the Kd in test [3] amounted to 9.47 nM; in test [4], 2570 nM.

B6: IMPI-027 (antibody, V domains shown)
VH: QVQLQESGPGLVKPSQTLSLTCTVSGGSISSYGYYWNWIRQHPGKGLEWIGYIYYSGSTYYNPSLKSRVTISVDTSKNQLSLRLNSVSAADTAVYYCARDFGGNSNYFDYWGQGTLVTVSS
VL: AIQLTQSPSSLSASVGDRVTITCRTSQGISSALAWYQQKPGKAPKLLIYDASSLESGVPSRFSGSGSGTDFTLTISSLQPEDFATYYCQQFNSYPLTFGGGTKVEIK
As to B6, the values for the Kd in test [1] and in test [2] were 6.31 nM and 2910 nM, respectively.

B7: IMPI-033 (antibody, V domains shown)
VH: QVQLQESGPGLVKPSQTLSLTCTVSGGSISSYGYYWSWIRQHPGKGLEWIGYIYYSGSTYYNPSLKSRVTMSVDTSKNQLSLRLNSVSAADTAVYYCARDFGGNSNYFDYWGQGTLVTVSS
VL: AIQLTQSPSSLSASVGDRVTITCRASQGISSALAWYQQKPGKAPNLLIYDASSLESGVPSRFSGSGSGTDFTLTISSLQPEDFATYYCQQFNSSPLTFGGGTKVEIK
B7: the Kd in test [1] worked out at 3.02 nM; in test [2] it was 1820 nM.

B8: IMPI-006 (antibody, V domains shown)
VH: QLQLQESGPGLVKPSETLSLTCTVSGGSISNSNYYWGWIRQPPGKGLEWIGSIYYSGRTYYNPSLKSRVTISVDTSKNQFSLKLSSVTAADTAVYYCARMGLLWFGEFYGMDVWGQGTTVTVSS
VL: DIQMTQSPSSLSASVGDRVTITCRASQGISSWLAWYQQKPEKAPKSLIYDASSLQRGVPSRFSGSGSGTDFTLTISSLQPEDFASYYCQQYNSYPLTFGGGTRVEIK
B8 gave a Kd in test [5] below 1 nM.

B9: IMPI-056 (antibody, V domains shown)
VH: EVQLVESGGGLIQPGGSLRLSCAASGLTVSSNYMNWVRQAPGKKLEWVSVIYSGGSTFYADSVRGRFTISRDNSKNTLFLQMNSLRAEDSAVYYCARDLGPYGVDVWGQGTTVTVSS
VL: DIQLTQSPSFLSASVGDRVTITCWASQGISSYLAWYQQKPGKAPKLLIYAASTLQSGVPSRFSGSGSGTEFTLTISSLQPEDFATYYCQQLNSYPLTFGQGTRLEIK
For B9, the Kd in test [3] was found to be 1.59 nM; in test [4], 682 nM.

B10: IMPI-060 (antibody, V domains shown)
VH: EVQLVESGGGLIQPGGSLRLSCAASGVTVSSNYMSWVRQAPGKGLEWVSVIYSGGSTFYADSVKGRFTISRDNSKNTLYLQMNSLRAEDTAVYYCARDLSYYGMDVWGQGTTVTVSS
VL: DIQLTQSPSFLSASVGDRVTITCWASQGISSYLAWYQQKPGKAPKLLIYAASTLQSGVPSKFSGSGSGTEFTLTISSLQPEDFATYYCQQLNSYPSSFGQGTKLEIK
As for B10, in test [3], binding was characterised by a dissociation constant (Kd) of 141 nM.

B11: IMPI-029 (antibody, V domains shown)
VH: EVQLVESGGGLIQPGGSLRLSCAASGVTVSSNYMNWVRQAPGKGLEWVSVIYSGGSTYYADSVKGRFTISRDNSKNTLFLQMNSLRAEDSAVYYCARDLGPYGVDVWGQGTTVTVSS
VL: DIQLTQSPSFLSASVGDRVTITCWASQGISSYLAWYQQKPGKAPKLLIYAASTLQSGVPSRFSGSGSGTEFTLTISSLQPEDFATYYCQELNSYPLTFGQGTRLEIK
In test [5], B11 came in with a Kd below 1 nM.

B12: IMPI-056 (antibody, V domains shown)
VH: EVQLVESGGGLIQPGGSLRLSCAASGLTVSSNYMNWVRQAPGKKLEWVSVIYSGGSTFYADSVRGRFTISRDNSKNTLFLQMNSLRAEDSAVYYCARDLGPYGVDVWGQGTTVTVSS
VL: DIQLTQSPSFLSASVGDRVTITCWASQGISSYLAWYQQKPGKAPKLLIYAASTLQSGVPSRFSGSGSGTEFTLTISSLQPEDFATYYCQQLNSYPLTFGQGTRLEIK
On to B12, for which the Kd in test [5] was below 1 nM.

B13: IMPI-059 (antibody, V domains shown)
VH: EVQLVESGGGLIQPGGSLRLSCAASGFTVSSIYMSWVRQAPGKGLEWVSIIYSRGSTDYADSVKGRFTISRDISKNTLYLQMNSLRAEDTAVYYCARDGTMVRGVHAFDIWGQGTMVTVSS
VL: DIQMTQSPPSLSASIGDRVTITCQASQDISNYLNWYQQKPGKAPKLLIYDASNLETGVPSRFSGSGSGTDFTLTISNLQPEDIVTYYCQQYDNLPSSFGQGTKLEIK
B13: the Kd in test [3] was 2.3 nM; in test [4], 1650 nM.

B14: IMPI-038 (antibody, V domains shown)
VH: QVQLVESGGGVVQPGRSLRLSCAASGFTFSSYGMHWVRQAPGKGLEWVAVISYDGSDKYYADSVKGRFTISRDNSKNTLYLQMNSLRAEDTAVYYCAKTVAGYYYYYYGMDVWGQGTTVTVSS
VL: DIQMTQSPSSVSASVGDRVTVTCRASQDISSWLAWFQQKPGKAPKFLIYDASNLENGVPSRFSGSGSGTDFTLTISSLQPEDFATYYCQQAKSFPWTFGQGTKVEIN
B14: the Kd was 0.826 nM in test [1] and 475 nM in test [2].

B15: IMPI-067 (antibody, V domains shown)
VH: QVQLVESGGGVVQPGTSLRLSCAASGFTFNSFGMHWVRQAPGKGLEWVAVISYDGSSKYYADSVKGRFTISRDNSKNTLYLQMNSLRAEDTAVYYCAKDEGDYDDYYYGMDVWGQGTTVTVSS
VL: EIVLTQSPGSLSLSPGERATLSCRASQSLSSRYLAWYHQKPGQAPRLLIYGASSRATGIPDRFSGSGSGTDFTLTISGLEPEDFAVYYCQQYGNSITFGGGTKVEIK
In turn, B15 returned a Kd in test [4] of 84.5 nM.
